One substance from article PMC8216847 can be followed below.

This experiment addresses SARS-HCoV-2 S2 extra-cellular domain (SARS-CoV-2).

The substance CV3-25 (antibody) showed an IC50 of neutralisation of SARS-CoV-2 pseudovirus on HEK293T-hACE2 cells of 0.34 µg/mL.
